Data reported in article PMC6565675, “Cryo-electron microscopy structure of an archaeal ribonuclease P holoenzyme” (Nature Communications, 2019).

Tests used:
[1] = molecular target: T1, Methanocaldococcus jannaschii RNase P protein subunit Rpp30 (Methanocaldococcus jannaschii, UniProt Q58539 1-232); assay: cryo-EM structure; MjaRNase P holoenzyme reconstituted in vitro from RPR and the purified protein components, purified by SEC; alone (4.6 Å) and with E. coli tRNA^Tyr (4.3 Å); buffer exchanged on the grid to 40 mM Hepes, pH 7.5, 200 mM NaCl; C2 symmetry applied; settings: both partners purified
T1 construct: Rpp30, protein subunit of RNase P of Methanocaldococcus jannaschii; full-length gene cloned; Purified as the (Pop5-Rpp30)2 heterotetramer; two copies in the dimeric holoenzyme; also called MjaRpp30; source: E. coli BL21 (DE3), co-expressed with MjaPop5 from pETDuet, purified (Ni-NTA, heating at 65 °C, ion-exchange, SEC)
T1 sequence (looked up): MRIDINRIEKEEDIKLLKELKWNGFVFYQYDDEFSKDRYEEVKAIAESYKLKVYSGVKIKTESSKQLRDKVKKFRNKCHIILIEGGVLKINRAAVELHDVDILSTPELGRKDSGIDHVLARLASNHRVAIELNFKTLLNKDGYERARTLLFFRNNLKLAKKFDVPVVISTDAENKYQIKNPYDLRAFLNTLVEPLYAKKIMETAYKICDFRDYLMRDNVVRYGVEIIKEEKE

[2] = molecular target: T2, Methanocaldococcus jannaschii RNase P protein subunit Rpp21 (Methanocaldococcus jannaschii, UniProt Q58372 1-128); assay: as above; settings: both partners purified
T2 construct: Rpp21, protein subunit of RNase P of Methanocaldococcus jannaschii; also called MjaRpp21; source: E. coli, expressed as the MjaRpp29-MjaRpp21 heterodimer, purified by the same procedure as Pop5-Rpp30
T2 sequence: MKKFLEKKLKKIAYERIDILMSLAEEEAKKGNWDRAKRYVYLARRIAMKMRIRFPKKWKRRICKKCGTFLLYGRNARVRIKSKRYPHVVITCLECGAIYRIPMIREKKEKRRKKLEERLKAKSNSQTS

binding result [1]: binds | binding result [2]: binds
B1: Methanocaldococcus jannaschii RNase P protein subunit Rpp29 (natural protein)
chain: MITPHNILRHELIGLKVEIVEAKNKAMIGIKGKVVDETRNTLVIEKEDGREVVIPKDIAVFLFQLKGCKVKVDGRLLIGRPEERLKKKIKILYPY
notes: Rpp29, protein subunit of RNase P of Methanocaldococcus jannaschii; also called MjaRpp29; source: E. coli, expressed as the MjaRpp29-MjaRpp21 heterodimer, purified by the same procedure as Pop5-Rpp30
